Broadly, the Kd is the equilibrium constant for the complex coming apart.

Here are results for two molecules from PMC10949515 (Journal of Virology, 2024).

B1: human FLNB C-terminal fragment R22–24, His6-tagged (domain or fragment, UniProt O75369 2282-2601, looked up)
chain: APSDDARRLTVMSLQESGLKVNQPASFAIRLNGAKGKIDAKVHSPSGAVEECHVSELEPDKYAVRFIPHENGVHTIDVKFNGSHVVGSPFKVRVGEPGQAGNPALVSAYGTGLEGGTTGIQSEFFINTTRAGPGTLSVTIEGPSKVKMDCQETPEGYKVMYTPMAPGNYLISVKYGGPNHIVGSPFKAKVTGQRLVSPGSANETSSILVESVTRSSTETCYSAIPKASSDASKVTSKGAGLSKAFVGQKSSFLVDCSKAGSNMLLIGVHGPTTPCEEVSMKHVGNQQYNVTYVVKERGDYVLAVKWGEEHIPGSPFHVTV
notes: also called R22–R24; FLNB R22-24

Data set [1] deals with the molecule itself.
In data set [2] the target is B1. The data set is described as follows: ITC. To be noted: both partners purified.
Data set [3] deals with T1, human FLNB C-terminal fragment R23–24, His6-tagged (human, UniProt O75369 2379-2601).
T1 construct: also called R23–R24; FLNB R23-24
T1 sequence (looked up): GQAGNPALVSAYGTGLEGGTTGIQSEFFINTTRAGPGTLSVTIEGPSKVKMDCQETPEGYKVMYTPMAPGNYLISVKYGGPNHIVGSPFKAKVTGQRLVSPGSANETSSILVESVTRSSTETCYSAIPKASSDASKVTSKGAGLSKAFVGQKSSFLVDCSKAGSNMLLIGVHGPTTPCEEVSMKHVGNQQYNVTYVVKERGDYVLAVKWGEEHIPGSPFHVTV
The experiment in a line: ITC. As to conditions: both partners purified.

The target of data set [4] is T2, FLNB R22–24 dimerization-deficient mutant (M2544E, L2546D), His6-tagged (human, UniProt O75369 2282-2601, M2544E | L2546D).
T2 construct: also called mR22–R24; mR22–24
T2 sequence (looked up): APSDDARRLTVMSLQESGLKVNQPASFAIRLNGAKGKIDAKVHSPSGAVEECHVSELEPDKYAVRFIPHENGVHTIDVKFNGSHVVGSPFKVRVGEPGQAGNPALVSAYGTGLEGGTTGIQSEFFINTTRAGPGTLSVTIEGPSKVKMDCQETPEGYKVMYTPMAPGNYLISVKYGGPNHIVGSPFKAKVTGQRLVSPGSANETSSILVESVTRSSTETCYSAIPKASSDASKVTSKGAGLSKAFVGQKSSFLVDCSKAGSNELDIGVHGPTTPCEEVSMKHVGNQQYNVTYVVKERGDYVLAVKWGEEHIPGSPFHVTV
The experiment in a line: SEC. To be noted: both partners purified.

B1: in data set [1], the binding result was “binds”.

B2: C4 N-terminal residues 1–149, His6-tagged (domain or fragment)
chain: MDTIKIFNHGEFDTIRNELVNLLKVVKWNTINSNVTVSSTDTIDISDCIREILYKQFKNVRNIEVSSDISFIKYNRFNDTTLTDDNVGYYLVIYLNRTKSVKTLIYPTPETVITSSEDIMFSKSLNFRFENVKRDYKLVMCSISLTYKP
notes: also called C4-N 1–149
As for B2, the results for the Kd in data set [2] and in data set [3] were 41.5 ± 30 nM and under 1 nM, respectively. In addition, the binding result in data set [4] is on record as “binds”.
